# What was measured:
# [1] = molecular target: akt1_human AKT1 (UniProt P31749)
# [2] = molecular target: akt1_human AKT1 (UniProt P31749); remark: listed apart in the source
# [3] = molecular target: mbp_bovin MBP (UniProt P02687)
# [4] = molecular target: mbp_bovin MBP (UniProt P02687); remark: listed apart in the source
# [5] = molecular target: akt1_human AKT1 (UniProt P31749); remark: listed apart in the source
# Sequence of akt1_human AKT1 (P31749 whole entry): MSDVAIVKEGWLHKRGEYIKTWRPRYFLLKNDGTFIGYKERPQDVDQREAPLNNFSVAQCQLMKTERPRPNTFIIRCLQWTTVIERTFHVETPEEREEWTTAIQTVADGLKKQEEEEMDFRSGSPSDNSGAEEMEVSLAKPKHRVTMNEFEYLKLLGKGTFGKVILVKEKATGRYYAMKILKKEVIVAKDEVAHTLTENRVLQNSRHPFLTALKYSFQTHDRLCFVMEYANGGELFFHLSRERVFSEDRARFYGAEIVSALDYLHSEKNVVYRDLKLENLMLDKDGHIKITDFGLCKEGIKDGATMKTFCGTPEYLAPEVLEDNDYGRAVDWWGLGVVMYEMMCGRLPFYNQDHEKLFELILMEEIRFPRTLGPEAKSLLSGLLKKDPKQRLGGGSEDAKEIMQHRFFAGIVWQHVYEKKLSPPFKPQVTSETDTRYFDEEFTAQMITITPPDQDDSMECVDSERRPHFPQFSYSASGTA
# Sequence of mbp_bovin MBP (P02687 whole entry): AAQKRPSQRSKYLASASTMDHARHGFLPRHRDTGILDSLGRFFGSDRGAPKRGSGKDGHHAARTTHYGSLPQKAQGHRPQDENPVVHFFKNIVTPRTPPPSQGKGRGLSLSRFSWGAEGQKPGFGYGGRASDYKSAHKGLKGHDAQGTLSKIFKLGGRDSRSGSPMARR
substance,measurement,setting,value
"Leucine-rich repeat serine/threonine-protein kinase 2 (Homo sapiens), Q5S007 R1441C",effect of a mutation on the interaction,[1],decreasing interaction
"Leucine-rich repeat serine/threonine-protein kinase 2 (Homo sapiens), Q5S007 I2020T",effect of a mutation on the interaction,[2],decreasing interaction
same,effect of a mutation on the interaction,[3],increasing interaction
"Leucine-rich repeat serine/threonine-protein kinase 2 (Homo sapiens), Q5S007 G2019S",effect of a mutation on the interaction,[4],increasing interaction
same,effect of a mutation on the interaction,[5],decreasing interaction

# Reference: IntAct's records for PubMed 21658387
